Among the data in paper PMC4589357, “The Role of Electrostatic Interactions in Binding of Histone H3K4me2/3 to the Sgf29 Tandem Tudor Domain” (PLoS ONE, 2015) are Kd and dH values, retold here.

Holding throughout (assay): ITC; peptide (generally 1.2 mM) titrated to protein (100 uM); for variants of low affinity 2.4 mM peptide to 200 uM protein; 25 mM TRIS pH 8.0, 50 mM NaCl, 1 mM DTT; one-site model
What all share (conditions): both partners purified
For orientation: ITC needs no label: the signal is the heat of the interaction.

For assay [1], the target named is T1, Sgf29 Y245F variant, residues 115-293 (human, UniProt Q96ES7 115-293, Y245F).
T1 construct: source: E. coli Rosetta BL21 DE3 PlysS, purified (Ni-NTA, TEV cleavage, SEC Superdex 75)
T1 sequence (looked up): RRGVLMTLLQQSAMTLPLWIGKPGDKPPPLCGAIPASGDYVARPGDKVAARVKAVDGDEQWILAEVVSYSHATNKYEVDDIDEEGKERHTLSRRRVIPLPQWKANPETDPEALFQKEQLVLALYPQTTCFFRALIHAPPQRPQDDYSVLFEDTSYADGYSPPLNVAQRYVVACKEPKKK

Assay [2] concerns the target T2, Wild-type Sgf29 (SAGA-associated Factor 29) tandem tudor domain, residues 115-293 (human, UniProt Q96ES7 115-293).
T2 construct: also called WT Sgf29; WT; source: E. coli Rosetta BL21 DE3 PlysS, purified (Ni-NTA, TEV cleavage, SEC Superdex 75)
T2 sequence (looked up): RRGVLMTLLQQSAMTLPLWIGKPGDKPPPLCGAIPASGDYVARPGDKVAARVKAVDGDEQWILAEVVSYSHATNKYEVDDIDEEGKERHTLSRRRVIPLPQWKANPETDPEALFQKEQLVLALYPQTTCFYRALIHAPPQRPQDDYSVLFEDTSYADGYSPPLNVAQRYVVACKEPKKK

Assay [3] has as its target T3, Sgf29 Y238F variant, residues 115-293 (human, UniProt Q96ES7 115-293, Y238F).
T3 construct: source: E. coli Rosetta BL21 DE3 PlysS, purified (Ni-NTA, TEV cleavage, SEC Superdex 75)
T3 sequence (looked up): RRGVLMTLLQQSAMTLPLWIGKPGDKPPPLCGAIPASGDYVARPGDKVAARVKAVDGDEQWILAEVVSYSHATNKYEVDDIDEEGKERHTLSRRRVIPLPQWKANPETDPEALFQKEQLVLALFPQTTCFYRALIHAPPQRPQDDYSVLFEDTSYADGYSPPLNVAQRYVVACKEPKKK

In assay [4] the target is T4, Sgf29 D266W variant, residues 115-293 (human, UniProt Q96ES7 115-293, D266W).
T4 construct: source: E. coli Rosetta BL21 DE3 PlysS, purified (Ni-NTA, TEV cleavage, SEC Superdex 75)
T4 sequence (looked up): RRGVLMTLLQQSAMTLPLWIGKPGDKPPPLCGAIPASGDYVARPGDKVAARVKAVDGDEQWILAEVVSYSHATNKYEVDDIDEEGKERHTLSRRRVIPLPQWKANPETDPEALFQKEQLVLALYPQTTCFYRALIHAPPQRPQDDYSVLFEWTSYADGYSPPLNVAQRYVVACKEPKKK

For assay [5], the target named is T5, Sgf29 D266A variant, residues 115-293 (human, UniProt Q96ES7 115-293, D266A).
T5 construct: source: E. coli Rosetta BL21 DE3 PlysS, purified (Ni-NTA, TEV cleavage, SEC Superdex 75)
T5 sequence (looked up): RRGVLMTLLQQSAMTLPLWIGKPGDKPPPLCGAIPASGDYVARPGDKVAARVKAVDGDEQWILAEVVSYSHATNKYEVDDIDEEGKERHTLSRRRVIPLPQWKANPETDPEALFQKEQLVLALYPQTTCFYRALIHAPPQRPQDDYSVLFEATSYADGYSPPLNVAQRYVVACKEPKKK

Assay [6] deals with T6, Sgf29 D266Y variant, residues 115-293 (human, UniProt Q96ES7 115-293, D266Y).
T6 construct: source: E. coli Rosetta BL21 DE3 PlysS, purified (Ni-NTA, TEV cleavage, SEC Superdex 75)
T6 sequence (looked up): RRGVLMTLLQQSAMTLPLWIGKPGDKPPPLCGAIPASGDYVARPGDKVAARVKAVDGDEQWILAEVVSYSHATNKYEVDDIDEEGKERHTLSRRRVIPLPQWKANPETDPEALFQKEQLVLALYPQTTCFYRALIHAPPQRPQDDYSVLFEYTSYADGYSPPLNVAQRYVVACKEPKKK

Assay [7] addresses T7, Sgf29 D266E variant, residues 115-293 (human, UniProt Q96ES7 115-293, D266E).
T7 construct: source: E. coli Rosetta BL21 DE3 PlysS, purified (Ni-NTA, TEV cleavage, SEC Superdex 75)
T7 sequence (looked up): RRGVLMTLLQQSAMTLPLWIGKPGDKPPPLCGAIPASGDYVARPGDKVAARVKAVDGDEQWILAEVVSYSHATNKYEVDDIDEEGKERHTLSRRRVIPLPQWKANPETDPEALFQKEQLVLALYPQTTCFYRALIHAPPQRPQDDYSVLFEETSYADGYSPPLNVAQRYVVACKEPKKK

Assay [8] has as its target T8, Sgf29 D266F variant, residues 115-293 (human, UniProt Q96ES7 115-293, D266F).
T8 construct: source: E. coli Rosetta BL21 DE3 PlysS, purified (Ni-NTA, TEV cleavage, SEC Superdex 75)
T8 sequence (looked up): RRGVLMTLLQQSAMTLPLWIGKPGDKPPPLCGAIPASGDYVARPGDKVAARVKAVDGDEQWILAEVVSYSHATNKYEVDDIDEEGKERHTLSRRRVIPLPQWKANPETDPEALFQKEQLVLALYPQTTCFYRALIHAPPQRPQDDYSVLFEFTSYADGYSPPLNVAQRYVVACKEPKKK

In assay [9] the target is T9, Sgf29 D266N variant, residues 115-293 (human, UniProt Q96ES7 115-293, D266N).
T9 construct: source: E. coli Rosetta BL21 DE3 PlysS, purified (Ni-NTA, TEV cleavage, SEC Superdex 75)
T9 sequence (looked up): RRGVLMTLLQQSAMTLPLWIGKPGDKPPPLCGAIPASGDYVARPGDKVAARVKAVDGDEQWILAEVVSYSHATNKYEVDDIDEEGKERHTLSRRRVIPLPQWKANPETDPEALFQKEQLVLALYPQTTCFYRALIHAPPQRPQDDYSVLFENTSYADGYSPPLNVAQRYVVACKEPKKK

No end group written: not given here. Me3 = trimethyl (on lysine, trimethyllysine)

B1: 10-mer histone 3 peptide H3K4me3 (ARTKme3QTARKS) (peptide)
peptide: ARTK(Me3)QTARKS-OH
notes: histone H3 N-terminal tail, 10-mer, K4 trimethylated; also called native 10-mer peptide; source: synthetic peptide (manual Fmoc solid-phase synthesis, preparative HPLC)
B1: the Kd in assay [1] was 14 µM; in assay [2] it was 3.1 µM; in assay [3] it was 3.5 µM; in [4] it was over 200 µM; in assay [5] it was 25 µM; in assay [6], 28 µM. The values for the Kd in [7], in [8] and in [9] were 3.9 µM, 44 µM and 25 µM, respectively. Also, the dH was -5.9 kcal/mol in assay [1]; -8.1 kcal/mol in assay [2]; -8.1 kcal/mol in [3]; -6.4 kcal/mol in [5]; -4.8 kcal/mol in assay [6]; -9 kcal/mol in [7]. The dH in [8] is -3.4 kcal/mol; in assay [9], -6.2 kcal/mol.

A word on the Kd: it is the free concentration of one partner at which half of the binding sites on the other are occupied at equilibrium, for simple one-to-one binding. Read a high Kd as a looser complex.
